Reference: patent US20240270846A1 (published 2024)

Molecular target: T1, CD3 epsilon homodimer protein (UniProt P07766 23-126)
T1 construct: also called CD3 (CD3 epsilon)
Assay: SPR Biacore T200, antibody over immobilised CD3e homodimer;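 further: CD3 epsilon homodimer amine-coupled on a CM4 chip, run at 25 °C in HBS-EP+, Z = bound amount of each single-residue H chain variant over that of the parent antibody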

T1 sequence (P07766 23-126): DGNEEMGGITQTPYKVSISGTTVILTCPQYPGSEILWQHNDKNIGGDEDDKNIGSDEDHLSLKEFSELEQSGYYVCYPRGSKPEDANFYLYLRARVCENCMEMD

Row | ratio of amounts bound (Z=Y/X vs CE115HA000) | Binder
1 | 0.97 | CE115HA000 S52cG one-arm antibody (antibody, human IgG1, kappa, L234A L235A, N297A, name in Kabat numbering, one-arm antibody) heavy: QVQLVESGGGVVQPGRSLRLSCAASGFTFSNAWMHWVRQAPGKGLEWVAQIKAKGNNYATYYAESVKGRFTISRDDSKNSLYLQMNSLKTEDTAVYYCRYVHYGAYYGVDAWGQGTTVTVSSASTKGPSVFPLAPSSKSTSGGTAALGCLVKDYFPEPVTVSWNSGALTSGVHTFPAVLQSSGLYSLSSVVTVPSSSLGTQTYICNVNHKPSNTKVDKKVEPKSCDKTHTCPPCPAPEAAGGPSVFLFPPKPKDTLMISRTPEVTCVVVDVSHEDPEVKFNWYVDGVEVHNAKTKPREEQYASTYRVVSVLTVLHQDWLNGKEYKCKVSNKALPAPIEKTISKAKGQPREPQVYTLPPSRCELTKNQVSLSCAVKGFYPSDIAVEWESNGQPENNYKTTPPVLDSDGSFFLVSKLTVDKSRWQQGNVFSCSVMHEALHNHYTQKSLSLSPDYKDDDDK EPKSSDKTHTCPPCPAPELLGGPSVFLFPPKPKDTLMISRTPEVTCVVVDVSHEDPEVKFNWYVDGVEVHNAKTKPREEQYNSTYRVVSVLTVLHQDWLNGKEYKCKVSNKALPAPIEKTISKAKGQPREPQVCTLPPSRDELTKNQVSLWCLVKGFYPSDIAVEWESNGQPENNYKTTPPVLDSDGSFFLYSKLTVDKSRWQQGNVFSCSVMHEALHNRYTQKSLSLSP light: DIVMTQSPLSLPVTPGEPASISCRSSQSLVHSNRNTYLHWYQQKPGQAPRLLIYKVSNRFSGVPDRFSGSGSGTDFTLKISRVEAEDVGVYYCGQGTQVPYTFGQGTKLEIKRTVAAPSVFIFPPSDEQLKSGTASVVCLLNNFYPREAKVQWKVDNALQSGNSQESVTEQDSKDSTYSLSSTLTLSKADYEKHKVYACEVTHQGLSSPVTKSFNRGEC
2 | 0.98 | CE115HA000 S52cL one-arm antibody (antibody, human IgG1, kappa, L234A L235A, N297A, name in Kabat numbering, one-arm antibody) heavy: QVQLVESGGGVVQPGRSLRLSCAASGFTFSNAWMHWVRQAPGKGLEWVAQIKAKLNNYATYYAESVKGRFTISRDDSKNSLYLQMNSLKTEDTAVYYCRYVHYGAYYGVDAWGQGTTVTVSSASTKGPSVFPLAPSSKSTSGGTAALGCLVKDYFPEPVTVSWNSGALTSGVHTFPAVLQSSGLYSLSSVVTVPSSSLGTQTYICNVNHKPSNTKVDKKVEPKSCDKTHTCPPCPAPEAAGGPSVFLFPPKPKDTLMISRTPEVTCVVVDVSHEDPEVKFNWYVDGVEVHNAKTKPREEQYASTYRVVSVLTVLHQDWLNGKEYKCKVSNKALPAPIEKTISKAKGQPREPQVYTLPPSRCELTKNQVSLSCAVKGFYPSDIAVEWESNGQPENNYKTTPPVLDSDGSFFLVSKLTVDKSRWQQGNVFSCSVMHEALHNHYTQKSLSLSPDYKDDDDK EPKSSDKTHTCPPCPAPELLGGPSVFLFPPKPKDTLMISRTPEVTCVVVDVSHEDPEVKFNWYVDGVEVHNAKTKPREEQYNSTYRVVSVLTVLHQDWLNGKEYKCKVSNKALPAPIEKTISKAKGQPREPQVCTLPPSRDELTKNQVSLWCLVKGFYPSDIAVEWESNGQPENNYKTTPPVLDSDGSFFLYSKLTVDKSRWQQGNVFSCSVMHEALHNRYTQKSLSLSP light: DIVMTQSPLSLPVTPGEPASISCRSSQSLVHSNRNTYLHWYQQKPGQAPRLLIYKVSNRFSGVPDRFSGSGSGTDFTLKISRVEAEDVGVYYCGQGTQVPYTFGQGTKLEIKRTVAAPSVFIFPPSDEQLKSGTASVVCLLNNFYPREAKVQWKVDNALQSGNSQESVTEQDSKDSTYSLSSTLTLSKADYEKHKVYACEVTHQGLSSPVTKSFNRGEC
3 | 1.04 | CE115HA000 S52cQ one-arm antibody (antibody, human IgG1, kappa, L234A L235A, N297A, name in Kabat numbering, one-arm antibody) heavy: QVQLVESGGGVVQPGRSLRLSCAASGFTFSNAWMHWVRQAPGKGLEWVAQIKAKQNNYATYYAESVKGRFTISRDDSKNSLYLQMNSLKTEDTAVYYCRYVHYGAYYGVDAWGQGTTVTVSSASTKGPSVFPLAPSSKSTSGGTAALGCLVKDYFPEPVTVSWNSGALTSGVHTFPAVLQSSGLYSLSSVVTVPSSSLGTQTYICNVNHKPSNTKVDKKVEPKSCDKTHTCPPCPAPEAAGGPSVFLFPPKPKDTLMISRTPEVTCVVVDVSHEDPEVKFNWYVDGVEVHNAKTKPREEQYASTYRVVSVLTVLHQDWLNGKEYKCKVSNKALPAPIEKTISKAKGQPREPQVYTLPPSRCELTKNQVSLSCAVKGFYPSDIAVEWESNGQPENNYKTTPPVLDSDGSFFLVSKLTVDKSRWQQGNVFSCSVMHEALHNHYTQKSLSLSPDYKDDDDK EPKSSDKTHTCPPCPAPELLGGPSVFLFPPKPKDTLMISRTPEVTCVVVDVSHEDPEVKFNWYVDGVEVHNAKTKPREEQYNSTYRVVSVLTVLHQDWLNGKEYKCKVSNKALPAPIEKTISKAKGQPREPQVCTLPPSRDELTKNQVSLWCLVKGFYPSDIAVEWESNGQPENNYKTTPPVLDSDGSFFLYSKLTVDKSRWQQGNVFSCSVMHEALHNRYTQKSLSLSP light: DIVMTQSPLSLPVTPGEPASISCRSSQSLVHSNRNTYLHWYQQKPGQAPRLLIYKVSNRFSGVPDRFSGSGSGTDFTLKISRVEAEDVGVYYCGQGTQVPYTFGQGTKLEIKRTVAAPSVFIFPPSDEQLKSGTASVVCLLNNFYPREAKVQWKVDNALQSGNSQESVTEQDSKDSTYSLSSTLTLSKADYEKHKVYACEVTHQGLSSPVTKSFNRGEC
4 | 1.11 | CE115HA000 S52cY one-arm antibody (antibody, human IgG1, kappa, L234A L235A, N297A, name in Kabat numbering, one-arm antibody) heavy: QVQLVESGGGVVQPGRSLRLSCAASGFTFSNAWMHWVRQAPGKGLEWVAQIKAKYNNYATYYAESVKGRFTISRDDSKNSLYLQMNSLKTEDTAVYYCRYVHYGAYYGVDAWGQGTTVTVSSASTKGPSVFPLAPSSKSTSGGTAALGCLVKDYFPEPVTVSWNSGALTSGVHTFPAVLQSSGLYSLSSVVTVPSSSLGTQTYICNVNHKPSNTKVDKKVEPKSCDKTHTCPPCPAPEAAGGPSVFLFPPKPKDTLMISRTPEVTCVVVDVSHEDPEVKFNWYVDGVEVHNAKTKPREEQYASTYRVVSVLTVLHQDWLNGKEYKCKVSNKALPAPIEKTISKAKGQPREPQVYTLPPSRCELTKNQVSLSCAVKGFYPSDIAVEWESNGQPENNYKTTPPVLDSDGSFFLVSKLTVDKSRWQQGNVFSCSVMHEALHNHYTQKSLSLSPDYKDDDDK EPKSSDKTHTCPPCPAPELLGGPSVFLFPPKPKDTLMISRTPEVTCVVVDVSHEDPEVKFNWYVDGVEVHNAKTKPREEQYNSTYRVVSVLTVLHQDWLNGKEYKCKVSNKALPAPIEKTISKAKGQPREPQVCTLPPSRDELTKNQVSLWCLVKGFYPSDIAVEWESNGQPENNYKTTPPVLDSDGSFFLYSKLTVDKSRWQQGNVFSCSVMHEALHNRYTQKSLSLSP light: DIVMTQSPLSLPVTPGEPASISCRSSQSLVHSNRNTYLHWYQQKPGQAPRLLIYKVSNRFSGVPDRFSGSGSGTDFTLKISRVEAEDVGVYYCGQGTQVPYTFGQGTKLEIKRTVAAPSVFIFPPSDEQLKSGTASVVCLLNNFYPREAKVQWKVDNALQSGNSQESVTEQDSKDSTYSLSSTLTLSKADYEKHKVYACEVTHQGLSSPVTKSFNRGEC
5 | 0.93 | CE115HA000 S52cV one-arm antibody (antibody, human IgG1, kappa, L234A L235A, N297A, name in Kabat numbering, one-arm antibody) heavy: QVQLVESGGGVVQPGRSLRLSCAASGFTFSNAWMHWVRQAPGKGLEWVAQIKAKVNNYATYYAESVKGRFTISRDDSKNSLYLQMNSLKTEDTAVYYCRYVHYGAYYGVDAWGQGTTVTVSSASTKGPSVFPLAPSSKSTSGGTAALGCLVKDYFPEPVTVSWNSGALTSGVHTFPAVLQSSGLYSLSSVVTVPSSSLGTQTYICNVNHKPSNTKVDKKVEPKSCDKTHTCPPCPAPEAAGGPSVFLFPPKPKDTLMISRTPEVTCVVVDVSHEDPEVKFNWYVDGVEVHNAKTKPREEQYASTYRVVSVLTVLHQDWLNGKEYKCKVSNKALPAPIEKTISKAKGQPREPQVYTLPPSRCELTKNQVSLSCAVKGFYPSDIAVEWESNGQPENNYKTTPPVLDSDGSFFLVSKLTVDKSRWQQGNVFSCSVMHEALHNHYTQKSLSLSPDYKDDDDK EPKSSDKTHTCPPCPAPELLGGPSVFLFPPKPKDTLMISRTPEVTCVVVDVSHEDPEVKFNWYVDGVEVHNAKTKPREEQYNSTYRVVSVLTVLHQDWLNGKEYKCKVSNKALPAPIEKTISKAKGQPREPQVCTLPPSRDELTKNQVSLWCLVKGFYPSDIAVEWESNGQPENNYKTTPPVLDSDGSFFLYSKLTVDKSRWQQGNVFSCSVMHEALHNRYTQKSLSLSP light: DIVMTQSPLSLPVTPGEPASISCRSSQSLVHSNRNTYLHWYQQKPGQAPRLLIYKVSNRFSGVPDRFSGSGSGTDFTLKISRVEAEDVGVYYCGQGTQVPYTFGQGTKLEIKRTVAAPSVFIFPPSDEQLKSGTASVVCLLNNFYPREAKVQWKVDNALQSGNSQESVTEQDSKDSTYSLSSTLTLSKADYEKHKVYACEVTHQGLSSPVTKSFNRGEC
6 | 1.19 | CE115HA000 S52cK one-arm antibody (antibody, human IgG1, kappa, L234A L235A, N297A, name in Kabat numbering, one-arm antibody) heavy: QVQLVESGGGVVQPGRSLRLSCAASGFTFSNAWMHWVRQAPGKGLEWVAQIKAKKNNYATYYAESVKGRFTISRDDSKNSLYLQMNSLKTEDTAVYYCRYVHYGAYYGVDAWGQGTTVTVSSASTKGPSVFPLAPSSKSTSGGTAALGCLVKDYFPEPVTVSWNSGALTSGVHTFPAVLQSSGLYSLSSVVTVPSSSLGTQTYICNVNHKPSNTKVDKKVEPKSCDKTHTCPPCPAPEAAGGPSVFLFPPKPKDTLMISRTPEVTCVVVDVSHEDPEVKFNWYVDGVEVHNAKTKPREEQYASTYRVVSVLTVLHQDWLNGKEYKCKVSNKALPAPIEKTISKAKGQPREPQVYTLPPSRCELTKNQVSLSCAVKGFYPSDIAVEWESNGQPENNYKTTPPVLDSDGSFFLVSKLTVDKSRWQQGNVFSCSVMHEALHNHYTQKSLSLSPDYKDDDDK EPKSSDKTHTCPPCPAPELLGGPSVFLFPPKPKDTLMISRTPEVTCVVVDVSHEDPEVKFNWYVDGVEVHNAKTKPREEQYNSTYRVVSVLTVLHQDWLNGKEYKCKVSNKALPAPIEKTISKAKGQPREPQVCTLPPSRDELTKNQVSLWCLVKGFYPSDIAVEWESNGQPENNYKTTPPVLDSDGSFFLYSKLTVDKSRWQQGNVFSCSVMHEALHNRYTQKSLSLSP light: DIVMTQSPLSLPVTPGEPASISCRSSQSLVHSNRNTYLHWYQQKPGQAPRLLIYKVSNRFSGVPDRFSGSGSGTDFTLKISRVEAEDVGVYYCGQGTQVPYTFGQGTKLEIKRTVAAPSVFIFPPSDEQLKSGTASVVCLLNNFYPREAKVQWKVDNALQSGNSQESVTEQDSKDSTYSLSSTLTLSKADYEKHKVYACEVTHQGLSSPVTKSFNRGEC
